The source of these data is US20070148191A1.

The target in the assay is CDw52 antigen (CAMPATH-1 antigen) (human) (UniProt P31358). Kind of assay: cell-based or functional assay.

As to CAMPATH (antibody), the lysis in 51Cr release assay (ADCC) of SaOS-2 osteosarcoma cells with LAK effector cells, after 18 h was determined as 45%.
